Results taken from patent publication US20140274782A1, “AFFINITY REAGENTS AND METHODS FOR DETECTION, PURIFICATION, AND PROTEOMIC ANALYSIS OF METHYLATED PROTEINS” (The Board of Trustees of the Leland Stanford Junior …, priority 2013, published 2014).

B1: SCML2: protein with methylated lysine identified in 3xMBT pull-down (protein, UniProt Q9UQR0 1-700, looked up)
Sex comb on midleg-like …: MGQTVNEDSMDVKKENQEKTPQSSTSSVQRDDFHWEEYLKETGSISAPSECFRQSQIPPVNDFKVGMKLEARDPRNATSVCIATVIGITGARLRLRLDGSDNRNDFWRLVDSPDIQPVGTCEKEGDLLQPPLGYQMNTSSWPMFLLKTLNGSEMASATLFKKEPPKPPLNNFKVGMKLEAIDKKNPYLICPATIGDVKGDEVHITFDGWSGAFDYWCKYDSRDIFPAGWCRLTGDVLQPPGTSVPIVKNIAKTESSPSEASQHSMQSPQKTTLILPTQQVRRSSRIKPPGPTAVPKRSSSVKNITPRKKGPNSGKKEKPLPVICSTSAASLKSLTRDRGMLYKDVASGPCKIVMSTVCVYVNKHGNFGPHLDPKRIQQLPDHFGPGPVNVVLRRIVQACVDCALETKTVFGYLKPDNRGGEVITASFDGETHSIQLPPVNSASFALRFLENFCHSLQCDNLLSSQPFSSSRGHTHSSAEHDKNQSAKEDVTERQSTKRSPQQTVPYVVPLSPKLPKTKEYASEGEPLFAGGSAIPKEENLSEDSKSSSLNSGNYLNPACRNPMYIHTSVSQDFSRSVPGTTSSPLVGDISPKSSPHEVKFQMQRKSEAPSYIAVPDPSVLKQGFSKDPSTWSVDEVIQFMKHTDPQISGPLADLFRQHEIDGKALFLLKSDVMMKYMGLKLGPALKLCYYIEKLKEGKYS
B2: NHP2L1: protein with methylated lysine identified in 3xMBT pull-down (protein, UniProt P55769 1-128, looked up)
NHP2-like protein 1: MTEADVNPKAYPLADAHLTKKLLDLVQQSCNYKQLRKGANEATKTLNRGISEFIVMAADAEPLEIILHLPLLCEDKNVPYVFVRSKQALGRACGVSRPVIACSVTIKEGSQLKQQIQSIQQSIERLLV

System: 3×MBT domain of L3MBTL1
Assay: SILAC proteomic pull-down 3×MBT vs 3×MBTD355N from 293T nuclear extract, LC-MS/MS
Format: binding, human
Conditions: SILAC ratio, 293T nuclear extract pull-down; * = protein identified in only one labeling experiment
In short: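 SILAC-labelled HEK 293T nuclear extract (600 μg) bound overnight at 4 °C to GST-3×MBT or 3×MBTD355N beads, with forward and label-swap runs; proteins kept if quantified in both directions. Glutathione eluates had the GST domains depleted, then went through SDS-PAGE, in-gel trypsin digest, Orbitrap LC-MS/MS and MaxQuant quantitation.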

Row | Molecule | Protein Ratio 3xMBT/D355N
1 | B1 | 1.7
2 | B2 | 4.4*
